In US20210214414A1 (Pfizer, published 2021):

Target: T1, Rabbit SLIT3-N (rabbit, UniProt A0A5F9DK65 34-1126)
T1 construct: domain: SLIT3-N; d2-labelled in the HTRF assay
T1 sequence: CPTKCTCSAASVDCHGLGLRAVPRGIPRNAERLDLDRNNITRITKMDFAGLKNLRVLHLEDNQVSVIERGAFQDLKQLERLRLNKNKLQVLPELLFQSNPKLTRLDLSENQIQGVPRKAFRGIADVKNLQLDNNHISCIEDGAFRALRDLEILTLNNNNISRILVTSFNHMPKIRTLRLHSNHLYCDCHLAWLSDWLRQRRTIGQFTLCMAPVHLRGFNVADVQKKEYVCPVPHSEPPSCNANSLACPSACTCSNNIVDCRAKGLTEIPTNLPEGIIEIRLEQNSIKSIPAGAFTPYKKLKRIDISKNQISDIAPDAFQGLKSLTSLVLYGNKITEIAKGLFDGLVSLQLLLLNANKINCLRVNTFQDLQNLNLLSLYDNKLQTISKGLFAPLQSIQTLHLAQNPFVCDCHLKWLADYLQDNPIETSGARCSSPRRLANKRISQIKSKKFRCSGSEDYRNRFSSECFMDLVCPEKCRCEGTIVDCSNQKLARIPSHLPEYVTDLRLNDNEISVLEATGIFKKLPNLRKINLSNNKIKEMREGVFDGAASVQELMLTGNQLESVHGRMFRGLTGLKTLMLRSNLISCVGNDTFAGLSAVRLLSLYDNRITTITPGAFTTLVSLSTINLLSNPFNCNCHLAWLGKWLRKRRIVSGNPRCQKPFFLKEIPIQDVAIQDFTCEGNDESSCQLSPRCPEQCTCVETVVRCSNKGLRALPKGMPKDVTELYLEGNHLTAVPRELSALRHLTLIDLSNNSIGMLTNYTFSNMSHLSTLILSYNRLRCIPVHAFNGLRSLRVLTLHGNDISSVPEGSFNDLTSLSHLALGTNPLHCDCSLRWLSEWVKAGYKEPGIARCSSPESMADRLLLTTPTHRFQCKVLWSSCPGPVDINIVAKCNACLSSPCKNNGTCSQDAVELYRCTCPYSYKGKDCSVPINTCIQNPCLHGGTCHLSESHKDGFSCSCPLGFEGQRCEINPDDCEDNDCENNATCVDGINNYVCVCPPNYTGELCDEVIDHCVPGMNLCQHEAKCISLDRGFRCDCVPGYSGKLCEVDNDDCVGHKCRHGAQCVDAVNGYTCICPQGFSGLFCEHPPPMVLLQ
Assay: HTRF competition: d2-labelled rabbit SLIT3-N binding to human ROBO2 on HEK293 cells; geometric mean, n=3
Procedure: After incubation, fluorescence at 665 nm and 620 nm was measured on an Envision multilabel plate reader. The HTRF Ratio was calculated as follows: fluorescence at 665 nm/fluorescence at 620 nm×10,000. […] The IC₅₀ for each SLITx-N was determined using an 11-point, 4-fold dilution series with a top concentration of 4000 nM.

B1: ROBO2-Fc 2.2 (Fc fusion)
chain: SRLRQEDFPPRIVEHPSDVIVSKGEPTTLNCKAEGRPTPTIEWYKDGERVETDKDDPRSHRMLLPSGSLFFLRIVHGRRSKPDEGSYVCVARNYLGEAVSRNASLEVALLRDDFRQNPTDVVVAAGEPAILECQPPRGHPEPTIYWKKDKVRIDDKEERISIRGGKLMISNTRKSDAGMYTCVGTNMVGERDSDPAELTVFERGGSGGSEPKSSDKTHTCPPCPAPEAAGAPSVFLFPPKPKDTLMISRTPEVTCVVVDVSHEDPEVKFNWYVDGVEVHNAKTKPREEQYNSTYRVVSVLTVLHQDWLNGKEYKCKVSNKALPAPIEKTISKAKGQPREPQVYTLPPSREEMTKNQVSLTCLVKGFYPSDIAVEWESNGQPENNYKTTPPVLDSDGSFFLYSKLTVDKSRWQQGNVFSCSVMHEALHNHYTQKSLSLSPG
notes: Labelled with Alexa Fluor 647 in the flow cytometry assay; also called ROBO-Fc 2.2; ROBO2-Fc 2.2-AF647
B1 gave an IC50 of 10.2 nM.
